# Data from patent publication US12304939B2, “EGFR and C-met fibronectin type III domain binding molecules” (Janssen Biotech, Inc., priority 2012, dated 2025).
# Like-named read-outs stand apart in the source and are kept apart here.
# Experiments:
# c-Met-Fc fusion protein = molecular target: T1, c-Met-Fc fusion protein (Homo sapiens, UniProt P08581); experiment: c-Met-Fc affinity by surface plasmon resonance (Proteon); type: binding; conditions: for binding to c-Met (in words): SPR, serine mutants in ECB15; for ka / kd / Kd: serine mutants of A3 in the context of ECB15; for Kd: read-out: KD
# T1 construct: recombinant EGFR and/or c-Met extracellular domain
# [1] = Differential scanning calorimetry in PBS (thermal stability); type: physicochemical; conditions: DSC in PBS, c-Met-binding FN3 domains
# T1 sequence (P08581 25-932 limits assumed): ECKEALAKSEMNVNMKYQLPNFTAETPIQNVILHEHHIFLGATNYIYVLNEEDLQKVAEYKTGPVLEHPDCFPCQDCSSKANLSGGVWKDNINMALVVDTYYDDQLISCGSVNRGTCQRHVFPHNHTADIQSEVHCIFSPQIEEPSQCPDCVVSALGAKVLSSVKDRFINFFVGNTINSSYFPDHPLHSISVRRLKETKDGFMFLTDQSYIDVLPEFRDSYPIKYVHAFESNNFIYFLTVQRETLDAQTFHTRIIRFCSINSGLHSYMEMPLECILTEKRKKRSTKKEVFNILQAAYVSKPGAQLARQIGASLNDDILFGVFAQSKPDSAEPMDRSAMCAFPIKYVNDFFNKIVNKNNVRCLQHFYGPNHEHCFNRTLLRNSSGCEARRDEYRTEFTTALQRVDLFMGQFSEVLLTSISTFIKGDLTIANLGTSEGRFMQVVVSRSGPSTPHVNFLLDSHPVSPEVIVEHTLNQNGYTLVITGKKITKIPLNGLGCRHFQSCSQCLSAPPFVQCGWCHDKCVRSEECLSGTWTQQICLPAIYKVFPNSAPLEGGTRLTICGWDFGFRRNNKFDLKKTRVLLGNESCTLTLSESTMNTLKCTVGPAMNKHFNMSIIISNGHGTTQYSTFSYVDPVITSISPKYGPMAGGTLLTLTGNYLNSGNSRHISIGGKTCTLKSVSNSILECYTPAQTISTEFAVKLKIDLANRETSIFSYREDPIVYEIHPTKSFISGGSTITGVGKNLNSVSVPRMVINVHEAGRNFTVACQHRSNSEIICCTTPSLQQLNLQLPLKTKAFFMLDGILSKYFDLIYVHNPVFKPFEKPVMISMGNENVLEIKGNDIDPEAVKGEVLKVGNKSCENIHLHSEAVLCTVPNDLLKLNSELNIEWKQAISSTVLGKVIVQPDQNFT
Molecule,binding to c-Met (in words) (c-Met-Fc fusion protein),Fold Change of KD compared to parent (c-Met-Fc fusion protein),ka (c-Met-Fc fusion protein),kd (c-Met-Fc fusion protein),Kd (c-Met-Fc fusion protein),Fold Change of KD compared to parent (c-Met-Fc fusion protein; listed as F38S),Thermal Stability (Tm) [1]
"A3 W32S: serine mutant of A3 c-Met domain in ECB15 context, SEQ ID NO: 219 (protein, c-Met binding FN3 domain) LPAPKNLVVSRVTEDSARLSWTAPDAAFDSFSIRYFEFLGSGEAIVLTVPGSERSYDLTGLKPGTEYVVNIMGVKGGKISPPLSAIFTT",–,74.5,289000 M⁻¹ s⁻¹,0.0086 s⁻¹,29.8 nM,–,–
"A3 K78S: serine mutant of A3 c-Met domain in ECB15 context, SEQ ID NO: 212 (protein, c-Met binding FN3 domain) LPAPKNLVVSRVTEDSARLSWTAPDAAFDSFWIRYFEFLGSGEAIVLTVPGSERSYDLTGLKPGTEYVVNIMGVKGGSISPPLSAIFTT",–,0.75,440000 M⁻¹ s⁻¹,0.00015 s⁻¹,0.3 nM,–,–
"P114AR7P92-G8: c-Met-binding FN3 domain, SEQ ID NO: 36 (protein, c-Met binding FN3 domain) LPAPKNLVVSRVTEDSARLSWTAPDAAFDSFVIRYFEFLGSGEAIVLTVPGSERSYDLTGLKPGTEYVVQILGVKGGYISIPLSAIFTT",–,–,–,–,–,–,90.9 C
"A3 F38S: serine mutant of A3 c-Met domain in ECB15 context, SEQ ID NO: 222 (protein, c-Met binding FN3 domain) LPAPKNLVVSRVTEDSARLSWTAPDAAFDSFWIRYFESLGSGEAIVLTVPGSERSYDLTGLKPGTEYVVNIMGVKGGKISPPLSAIFTT",–,1792.5,45100 M⁻¹ s⁻¹,0.0323 s⁻¹,717 nM,greater than 100,–
"A3 V68S: serine mutant of A3 c-Met domain in ECB15 context, SEQ ID NO: 215 (protein, c-Met binding FN3 domain) LPAPKNLVVSRVTEDSARLSWTAPDAAFDSFWIRYFEFLGSGEAIVLTVPGSERSYDLTGLKPGTEYSVNIMGVKGGKISPPLSAIFTT",–,9,329000 M⁻¹ s⁻¹,0.0012 s⁻¹,3.6 nM,–,–
"P114AR7P93-H9: c-Met-binding FN3 domain, SEQ ID NO: 40 (protein, c-Met binding FN3 domain) LPAPKNLVVSRVTEDSARLSWTAPDAAFDSFWIRYFEFLGSGEAIVLTVPGSERSYDLTGLKPGTEYVVQIIGVKGGHISLPLSAIFTT",–,–,–,–,–,–,88.2 C
"A3 F36S: serine mutant of A3 c-Met domain in ECB15 context, SEQ ID NO: 218 (protein, c-Met binding FN3 domain) LPAPKNLVVSRVTEDSARLSWTAPDAAFDSFWIRYSEFLGSGEAIVLTVPGSERSYDLTGLKPGTEYVVNIMGVKGGKISPPLSAIFTT",–,68,188000 M⁻¹ s⁻¹,0.00512 s⁻¹,27.2 nM,–,–
"P114AR7P93-G8: c-Met-binding FN3 domain, SEQ ID NO: 39 (protein, c-Met binding FN3 domain) LPAPKNLVVSRVTEDSARLSWTAPDAAFDSFWIRYFEFLGSGEAIVLTVPGSERSYDLTDLKPGTEYGVTINGVKGGRVSTPLSAIFTT",–,–,–,–,–,–,76.8 C
"P114AR7P92-H5: c-Met-binding FN3 domain, SEQ ID NO: 37 (protein, c-Met binding FN3 domain) LPAPKNLVVSRVTEDSARLSWTAPDAAFDSFWIRYLEFLLGGEAIVLTVPGSERSYDLTGLKPGTEYVVQIMGVKGGTVSPPLSAIFTT",–,–,–,–,–,–,87 C
"A3 N70S: serine mutant of A3 c-Met domain in ECB15 context, SEQ ID NO: 216 (protein, c-Met binding FN3 domain) LPAPKNLVVSRVTEDSARLSWTAPDAAFDSFWIRYFEFLGSGEAIVLTVPGSERSYDLTGLKPGTEYVVSIMGVKGGKISPPLSAIFTT",–,14.75,425000 M⁻¹ s⁻¹,0.00249 s⁻¹,5.9 nM,–,–

# Now from value to molecule, other results behind:
binding to c-Met (in words) (c-Met-Fc fusion protein),Fold Change of KD compared to parent (c-Met-Fc fusion protein),ka (c-Met-Fc fusion protein),kd (c-Met-Fc fusion protein),Kd (c-Met-Fc fusion protein),Fold Change of KD compared to parent (c-Met-Fc fusion protein; listed as F38S),Molecule,Thermal Stability (Tm) [1]
No binding was measurable,–,–,–,–,–,"A3 M72S: serine mutant of A3 c-Met domain in ECB15 context, SEQ ID NO: 220 (protein, c-Met binding FN3 domain) LPAPKNLVVSRVTEDSARLSWTAPDAAFDSFWIRYFEFLGSGEAIVLTVPGSERSYDLTGLKPGTEYVVNISGVKGGKISPPLSAIFTT",–
–,4.25,321000 M⁻¹ s⁻¹,0.000536 s⁻¹,1.7 nM,–,"A3 P81S: serine mutant of A3 c-Met domain in ECB15 context, SEQ ID NO: 217 (protein, c-Met binding FN3 domain) LPAPKNLVVSRVTEDSARLSWTAPDAAFDSFWIRYFEFLGSGEAIVLTVPGSERSYDLTGLKPGTEYVVNIMGVKGGKISSPLSAIFTT",–
–,4.25,185000 M⁻¹ s⁻¹,0.00032 s⁻¹,1.7 nM,–,"A3 G40S: serine mutant of A3 c-Met domain in ECB15 context, SEQ ID NO: 213 (protein, c-Met binding FN3 domain) LPAPKNLVVSRVTEDSARLSWTAPDAAFDSFWIRYFEFLSSGEAIVLTVPGSERSYDLTGLKPGTEYVVNIMGVKGGKISPPLSAIFTT",–
–,6.75,475000 M⁻¹ s⁻¹,0.00127 s⁻¹,2.7 nM,–,"A3 L39S: serine mutant of A3 c-Met domain in ECB15 context, SEQ ID NO: 214 (protein, c-Met binding FN3 domain) LPAPKNLVVSRVTEDSARLSWTAPDAAFDSFWIRYFEFSGSGEAIVLTVPGSERSYDLTGLKPGTEYVVNIMGVKGGKISPPLSAIFTT",–
No binding was measurable,–,–,–,–,–,"A3 R34S: serine mutant of A3 c-Met domain in ECB15 context, SEQ ID NO: 221 (protein, c-Met binding FN3 domain) LPAPKNLVVSRVTEDSARLSWTAPDAAFDSFWISYFEFLGSGEAIVLTVPGSERSYDLTGLKPGTEYVVNIMGVKGGKISPPLSAIFTT",–
No binding was measurable,–,–,–,–,–,"A3 I79S: serine mutant of A3 c-Met domain in ECB15 context, SEQ ID NO: 223 (protein, c-Met binding FN3 domain) LPAPKNLVVSRVTEDSARLSWTAPDAAFDSFWIRYFEFLGSGEAIVLTVPGSERSYDLTGLKPGTEYVVNIMGVKGGKSSPPLSAIFTT",–
